We go through 1 substance from patent US20250277048A1.

This test concerns the target human CD40 (hCD40) expressed on cells (human) (UniProt P25942). The test is described as follows: cell-based or functional assay.

Chain of human CD40 (hCD40) expressed on cells (human) (P25942 21-277): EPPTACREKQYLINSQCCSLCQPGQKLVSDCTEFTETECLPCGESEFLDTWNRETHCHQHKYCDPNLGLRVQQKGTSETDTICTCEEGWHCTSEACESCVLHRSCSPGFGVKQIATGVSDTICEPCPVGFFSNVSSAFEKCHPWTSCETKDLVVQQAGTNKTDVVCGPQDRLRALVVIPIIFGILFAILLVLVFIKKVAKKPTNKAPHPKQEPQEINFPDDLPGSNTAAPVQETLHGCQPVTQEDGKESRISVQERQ

For the substance “human CD40L (soluble, used in the cell assays) (from UniProt P29965 113-261) (ligand)”, the EC50 of activation, Raji/NFkB-luc came out at 0.691 nM; the EC50 of activation, Ramos.2G6.4C10/NFkB-luc stood at 0.436 nM; the EC50 of activation, THP-1/NFkB-luc stood at 1.47 nM.
